The values below come from article PMC10536834, “Elucidating the Role of a Calcium-Binding Loop in an x-Prolyl Aminodipeptidase from Lb. helveticus” (ACS Omega, 2023).

Substrate in this series: NCC(=O)N1CCC[C@H]1C(=O)Nc1ccc([N+](=O)[O-])cc1
The series is described as follows: purified protein. The class given is biochemical, Lactobacillus helveticus. Particulars: 50 mM MES pH 6.5, 40 °C, 200 nM enzyme, 75-500 μM substrate.

By Km is commonly meant the substrate concentration at which the rate is half of its maximum.

B1: PepX (x-prolyl aminodipeptidase) from Lactobacillus helveticus (Lactobacillus helveticus) (protein)
chain: MKYNQYAYVETDFQQQVKELIDINFLPKNYQVWDFSSLLAKLVKNAIAEAKTDAAKNAKLAEFAVSDHQTLADFLKEKPTEIGTKQFYNVALQLLGYHVHYDYDFADPTGFMQRNALPFLQDISDNQKLISAFYRLLNTRAKNGQILLDVMAGKGYFTQFWGQNKFKFFNGKSIPVFDTNKVIREVVYVETDLDTDHDGKSDLIQVTVFRPEETNKGLKVPALYTASPYFGGIIANEKRNHNVDENLSDSTEWNDPQYVHSPIVKAEKPDGSSRPATEEAVHKSSYPLNEYMLARGFASVFAGAIGTRGSDGVRITGAPEETESAAAVIEWLHGDRVAYTDRTRTVQTTADWCNGNIGMTGRSYLGTLQIAIATTGVKGLKTVVSEAAISSWYDYYREHGLVIAPEACQGEDLDLLAETCQSNLWDAGSYLKIKPEYDKMQKQLREKEDRNTGQYSDFWEARNYRHHADGIKCSWISVHGLNDWNVKPKNVYKIWQLVKKMPMKHHLFLHQGPHYNMNNLVSIDFTDLMNLWFVHELLGIENNAYNQWPTVMIQDNLQADKWHEEPDWSNDLGQEKIYYPTDEGELFQDGNGKAQKSFTDVGGIEFKKAGISESDWQYKFICGDEKWAKPSLRFETDEFTHPTTIVGRPEVKVRVSASLPKGEISVALVELGERQRLTATPKFLMHGGQELGYRFGTDTLQEFVPDKKTKAKLITKAHMNLQNFKDMKKPEAIDADKFYDLDFLLQPTYYTIPSGSKLALIIYSTDQGMTKRPLEDETYTIDLANTEIKFYEK
notes: recombinant, N-terminal six-histidine tag, pET14b, E. coli BL21(DE3)pLysS; PepX known to form dimers
In the case of B1, the Km amounted to 302 µM.

B2: PepX (x-prolyl aminodipeptidase) from Lactobacillus helveticus (Lactobacillus helveticus; D196A) (protein)
chain: MKYNQYAYVETDFQQQVKELIDINFLPKNYQVWDFSSLLAKLVKNAIAEAKTDAAKNAKLAEFAVSDHQTLADFLKEKPTEIGTKQFYNVALQLLGYHVHYDYDFADPTGFMQRNALPFLQDISDNQKLISAFYRLLNTRAKNGQILLDVMAGKGYFTQFWGQNKFKFFNGKSIPVFDTNKVIREVVYVETDLDTAHDGKSDLIQVTVFRPEETNKGLKVPALYTASPYFGGIIANEKRNHNVDENLSDSTEWNDPQYVHSPIVKAEKPDGSSRPATEEAVHKSSYPLNEYMLARGFASVFAGAIGTRGSDGVRITGAPEETESAAAVIEWLHGDRVAYTDRTRTVQTTADWCNGNIGMTGRSYLGTLQIAIATTGVKGLKTVVSEAAISSWYDYYREHGLVIAPEACQGEDLDLLAETCQSNLWDAGSYLKIKPEYDKMQKQLREKEDRNTGQYSDFWEARNYRHHADGIKCSWISVHGLNDWNVKPKNVYKIWQLVKKMPMKHHLFLHQGPHYNMNNLVSIDFTDLMNLWFVHELLGIENNAYNQWPTVMIQDNLQADKWHEEPDWSNDLGQEKIYYPTDEGELFQDGNGKAQKSFTDVGGIEFKKAGISESDWQYKFICGDEKWAKPSLRFETDEFTHPTTIVGRPEVKVRVSASLPKGEISVALVELGERQRLTATPKFLMHGGQELGYRFGTDTLQEFVPDKKTKAKLITKAHMNLQNFKDMKKPEAIDADKFYDLDFLLQPTYYTIPSGSKLALIIYSTDQGMTKRPLEDETYTIDLANTEIKFYEK
notes: as for B1
Regarding B2, the Km was determined as 315 µM.
